According to paper PMC3153463:

Biological target: H103C mutant of RAV-1 IN CCD (RAV-1 IN CCD_(H103C)), residues 53-199 (Rous-associated virus type 1 (RAV-1))
Experiment: cross-linking; engineered Cys103-Cys103 disulfide bond; denaturing SDS-PAGE in non-reducing conditions; mass spectrometry (MALDI-TOF) of tryptic peptides

H103C mutant of RAV-1 IN CCD (RAV-1 IN CCD_(H103C)), residues 53-199 (domain or fragment)
stoichiometry N: 2
